According to patent CN111018978A (DONGGUAN PENGZHI BIOTECHNOLOGY CO LTD, dated 2020):

Target: T1, 人心肌肌钙蛋白I (cTnI) (human, UniProt P19429 1-210, limits assumed)
T1 construct: Both are treated here as one molecule; also called cTnI蛋白; cTnI质控品重组蛋白
Assay: BLI (AMC sensor), antibody captured, cTnI recombinant protein in solution

T1 sequence (P19429 whole entry): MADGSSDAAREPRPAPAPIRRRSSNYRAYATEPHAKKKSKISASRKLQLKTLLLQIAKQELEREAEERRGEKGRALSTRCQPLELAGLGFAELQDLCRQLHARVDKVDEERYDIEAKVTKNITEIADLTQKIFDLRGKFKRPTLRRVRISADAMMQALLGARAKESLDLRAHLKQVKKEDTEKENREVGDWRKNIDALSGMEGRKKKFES

B1: Anti-cTnI 6E3 重组抗体 (WT) (antibody, mouse IgG1, kappa, V domains shown)
VH: EVQLQQSGPEVVKPGASVKISCKASGFIFSGQTMNWVKQSGEKNLEWIGLLNPSDNTTYNNKFKGKATLTVDKSSNTAYMQLLSLTSEDSAVYYCSSFGSWAQGTLVTVSA
VL: DIVLTQSPASLAVSLGQRATISCKASNSIDYEGDSYMNWYQQKPGQSPKLLIFVASLVDSGIPARFSASGSGTDFTLNIHPVEEEDAATYYCQQTYEGPWTFGGGTKLEIKR
notes: also called 样品1的抗体; Anti-cTnI 6E3单克隆抗体
Kd: 65.5 nM | koff: 0.00278 s⁻¹ | kon: 42500 M⁻¹ s⁻¹
